Values of other authors, collected in article PMC3669279.
Like-named read-outs stand apart in the source and are kept apart here.

Columns and labels:
[1] = target: protective antigen (PA) (Bacillus anthracis) (UniProt P13423)
[2] = target: protective antigen (PA) (Bacillus anthracis) (UniProt P13423); remark: listed apart in the source

## edema factor (EF) (from UniProt P40136)
[1]
  Kd: 1 nM

## lethal factor (LF) (from UniProt P15917)
[2]
  Kd: 1 nM
